These results are taken from the supplement of paper PMC10567573.

This series in a line: protein stability index of a GFP-peptide fusion (GPS, HEK-293T) (PSI 1-6); higher = more stable. As to conditions: c terminus: a fixed tail appended.

± gives the standard deviation.
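Also: 24-mer peptide tiles fused after GFP, lentivirally expressed, FACS-sorted into six equal bins by GFP/DsRed ratio, decoded by Illumina sequencing, PSI is the read-weighted mean bin number.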

Consider FCDMDKSLLCLLCSNSQEHGAHKH [TRIM43], for which the protein stability index is, setting by setting: (treatment: DMSO) 2.49 ± 0.37; (treatment: MLN4924 1 uM, 8 h) 3 ± 0.67.
Take AQYSVTGSAVARAVCKATTHEVMG [SNAP91]: the protein stability index (treatment: DMSO) was 3.34 ± 0.088 and the protein stability index (treatment: MLN4924 1 uM, 8 h) amounted to 3.23 ± 0.2.
As to YFLELTQSFIIPLERYVASLMPLQ [DENND6A], the protein stability index was determined as 2.56 ± 0.11 (treatment: DMSO) and 3.15 ± 0.33 (treatment: MLN4924 1 uM, 8 h).
For QLWGQKKKNSNMTYEKLSRAMRYY [ELF3], the protein stability index by setting is: (treatment: DMSO) 2.29 ± 0.042; (treatment: MLN4924 1 uM, 8 h) 2.32 ± 0.25.
For the sequence TPAEGDTEEDDGFVDILESDLKDD [CDC25B], the protein stability index by setting is: (treatment: DMSO) 5.34 ± 0.3; (treatment: MLN4924 1 uM, 8 h) 5.62 ± 0.24.
On to IKCETSPPSSPRTLRLEKLGHPAL [PPFIA4], for which the protein stability index runs as follows: (treatment: DMSO) 3.48 ± 0.35; (treatment: MLN4924 1 uM, 8 h) 3.56 ± 0.22.
Turning to YNVIIGWSIFYFFKSFQYPLPWSE [SLC6A17], under “treatment: MLN4924 1 uM, 8 h”, the protein stability index came out at 3.32 ± 0.67.
On to EQHDLVYGDWTSGENSDGCYEHFA [CLPTM1], for which the protein stability index by setting is: (treatment: DMSO) 4.53 ± 0.22; (treatment: MLN4924 1 uM, 8 h) 4.41 ± 0.36.
As for SRNFIERNHMENGGDHRYVNNYTN [TRIM29], the protein stability index runs as follows: (treatment: DMSO) 3.46 ± 0.22; (treatment: MLN4924 1 uM, 8 h) 3.57 ± 0.18.
For the sequence YALQMEQLNGILLHLESELAQTRA [KRT18], the protein stability index runs as follows: (treatment: DMSO) 2.24 ± 0.18; (treatment: MLN4924 1 uM, 8 h) 2.43 ± 0.29.
Consider SMDIARGLMVTCGTDRIVKIWDMT [WDFY1], for which the protein stability index (treatment: DMSO) came out at 2.25 ± 0.43 and the protein stability index (treatment: MLN4924 1 uM, 8 h) was found to be 1.92 ± 0.33.
For RHSISMPAMRNSPTFKSFEERVET [TPD52L1], in that order: 4.66 ± 0.18 and 4.75 ± 0.42.
As for QRSTVFKTTIPEEEEEEEEAAGVV [LMNB1], the protein stability index was found to be 5.6 ± 0.11 (treatment: DMSO) and 5.56 ± 0.22 (treatment: MLN4924 1 uM, 8 h).
Turning to PEEPAASTDPNIVRKKERGREEKC [TAF7L], the protein stability index is 5.28 ± 0.53 (treatment: DMSO) and 5.64 ± 0.32 (treatment: MLN4924 1 uM, 8 h).
Regarding AEGTPRSNHSAQDSAVENLLLLSK [IKZF1], the protein stability index is, setting by setting: (treatment: DMSO) 4.67 ± 0.41; (treatment: MLN4924 1 uM, 8 h) 4.86 ± 0.95.
For HRNQCQYCRLKKCLKVGMRREAVQ [NR2F2], in that order: 2.39 ± 0.47 and 2.57 ± 0.57.
On to AAGELPTVECYNPRTNEWTYVAKM [KLHL13], for which the protein stability index by setting is: (treatment: DMSO) 3.11 ± 0.37; (treatment: MLN4924 1 uM, 8 h) 3.2 ± 0.42.
On to AGPGAAEPLPVERDPAAGAAPFRF [ZNF511], for which the protein stability index by setting is: (treatment: DMSO) 4.38 ± 0.17; (treatment: MLN4924 1 uM, 8 h) 4.64 ± 0.29.
As to LVDNVYCIGQRRFHTMDELVEHYK [NCK2], the protein stability index came out at 3.68 ± 0.24 (treatment: DMSO) and 3.96 ± 0.16 (treatment: MLN4924 1 uM, 8 h).
On to LPREEEIVFPEKLNGSVLPGSGAP [ADAMTS4], for which the protein stability index runs as follows: (treatment: DMSO) 4.49 ± 0.45; (treatment: MLN4924 1 uM, 8 h) 4.63 ± 0.46.
The matching figures for FSQLYLYSFISLFIYMVLSLFIAL [MCOLN1]: 3.28 ± 0.21 and 3.24 ± 0.21.
With VRNLFGLDPSSGAIHVLGPIDFEE [PCDHGC5], the protein stability index runs as follows: (treatment: DMSO) 2.19 ± 0.14; (treatment: MLN4924 1 uM, 8 h) 2.33 ± 0.14.
Take LSRHDKAVQRFCLIGSLSKHESEY [NETO1]: the protein stability index is, setting by setting: (treatment: DMSO) 2.72 ± 0.12; (treatment: MLN4924 1 uM, 8 h) 2.69 ± 0.072.
HRRTVKMRKGNTMQQFLQKALEIL [FAM50A]: the protein stability index came out at 3.08 ± 0.36 (treatment: DMSO) and 2.77 ± 0.42 (treatment: MLN4924 1 uM, 8 h).
On to LSNQLAVTFREENTIAFRHLFLLG [MCOLN1], for which the protein stability index (treatment: DMSO) worked out at 2.48 ± 0.11 and the protein stability index (treatment: MLN4924 1 uM, 8 h) turned out to be 2.5 ± 0.18.
EKINKIKWLPQQNAAHSLLSTNDK [PPP2R2C] gave a protein stability index (treatment: DMSO) of 4.07 ± 0.19 and a protein stability index (treatment: MLN4924 1 uM, 8 h) of 4.15 ± 0.11.
For EATPRSLRASGSLCGPHAKAPYLC, the protein stability index reads like this: (treatment: DMSO) 2.77 ± 0.26; (treatment: MLN4924 1 uM, 8 h) 2.82 ± 0.23.
For QVFRLAFRSGALDLDSCSRDGALL [MYORG], in that order: 2.33 ± 0.29 and 2.14 ± 0.091.
ESRLKRSNPLAREIFRRHFRQLCY [ZSCAN9] yielded a protein stability index (treatment: DMSO) of 2.15 ± 0.25 and a protein stability index (treatment: MLN4924 1 uM, 8 h) of 2.34 ± 0.1.
